Experimental data as given in patent publication US20220017612A1.

Assays:
[1] = target: LAP-TGFβ1 on U937 cells (Homo sapiens) (UniProt P01137); test: flow cytometry dot plot against GARP, U937 cells, Alexa 647 antibody at 10 ug/ml
[2] = target: human-chicken LAP-TGFβ1 chimera #5 on HT1080 cells (human/chicken chimera); test: flow cytometry, transduced HT1080 cells
[3] = target: human-chicken LAP-TGFβ1 chimera #2.1 on HT1080 cells (human/chicken chimera) (UniProt P01137); test: flow cytometry, transduced HT1080 cells
[4] = target: human-chicken LAP-TGFβ1 chimera #4 on HT1080 cells (human/chicken chimera) (UniProt P01137); test: flow cytometry, transduced HT1080 cells
Sequence of human-chicken LAP-TGFβ1 chimera #4 on HT1080 cells (human/chicken chimera) (P01137 other isoform, or with tags, fused parts or gaps mutant): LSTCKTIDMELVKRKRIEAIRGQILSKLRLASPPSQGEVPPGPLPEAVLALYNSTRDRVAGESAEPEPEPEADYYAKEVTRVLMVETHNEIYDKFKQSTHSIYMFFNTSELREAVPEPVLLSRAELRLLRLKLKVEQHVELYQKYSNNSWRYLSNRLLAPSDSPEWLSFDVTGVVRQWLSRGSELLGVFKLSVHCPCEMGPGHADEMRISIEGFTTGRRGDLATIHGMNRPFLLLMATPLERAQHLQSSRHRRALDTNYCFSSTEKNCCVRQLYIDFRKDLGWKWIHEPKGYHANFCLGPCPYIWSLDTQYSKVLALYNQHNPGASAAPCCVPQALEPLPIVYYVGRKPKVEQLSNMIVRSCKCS

[5] = target: chicken LAP-TGFβ1 on HT1080 cells (chicken) (UniProt P09531); test: flow cytometry, transduced HT1080 cells
Sequence of chicken LAP-TGFβ1 on HT1080 cells (chicken) (P09531 19-391): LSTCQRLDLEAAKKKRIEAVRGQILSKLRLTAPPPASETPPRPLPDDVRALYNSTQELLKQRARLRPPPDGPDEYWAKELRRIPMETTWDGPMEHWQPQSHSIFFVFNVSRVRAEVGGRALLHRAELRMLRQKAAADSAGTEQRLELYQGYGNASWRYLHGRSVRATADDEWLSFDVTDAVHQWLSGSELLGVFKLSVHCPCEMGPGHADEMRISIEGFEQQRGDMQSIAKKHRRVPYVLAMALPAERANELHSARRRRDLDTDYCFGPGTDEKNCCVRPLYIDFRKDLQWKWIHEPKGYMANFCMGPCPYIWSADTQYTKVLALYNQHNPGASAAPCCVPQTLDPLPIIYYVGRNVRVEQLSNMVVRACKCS

[6] = target: human-chicken LAP-TGFβ1 chimera #1.3 on HT1080 cells (human/chicken chimera) (UniProt P01137); test: flow cytometry, transduced HT1080 cells
Sequence of human-chicken LAP-TGFβ1 chimera #1.3 on HT1080 cells (human/chicken chimera) (P01137 other isoform, or with tags, fused parts or gaps mutant): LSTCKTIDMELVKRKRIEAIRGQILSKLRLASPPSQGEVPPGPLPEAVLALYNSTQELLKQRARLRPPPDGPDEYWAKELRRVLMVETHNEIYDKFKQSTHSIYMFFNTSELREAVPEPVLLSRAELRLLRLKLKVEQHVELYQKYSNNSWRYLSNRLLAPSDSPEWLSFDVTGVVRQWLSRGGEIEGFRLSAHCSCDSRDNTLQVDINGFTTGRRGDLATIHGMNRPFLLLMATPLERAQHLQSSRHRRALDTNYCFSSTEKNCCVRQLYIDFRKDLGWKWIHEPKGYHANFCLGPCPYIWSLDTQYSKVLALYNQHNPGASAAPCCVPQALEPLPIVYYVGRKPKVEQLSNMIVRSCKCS

[7] = target: human-chicken LAP-TGFβ1 chimera #7 on HT1080 cells (human/chicken chimera) (UniProt P01137); test: flow cytometry, transduced HT1080 cells
Sequence of human-chicken LAP-TGFβ1 chimera #7 on HT1080 cells (human/chicken chimera) (P01137 other isoform, or with tags, fused parts or gaps mutant): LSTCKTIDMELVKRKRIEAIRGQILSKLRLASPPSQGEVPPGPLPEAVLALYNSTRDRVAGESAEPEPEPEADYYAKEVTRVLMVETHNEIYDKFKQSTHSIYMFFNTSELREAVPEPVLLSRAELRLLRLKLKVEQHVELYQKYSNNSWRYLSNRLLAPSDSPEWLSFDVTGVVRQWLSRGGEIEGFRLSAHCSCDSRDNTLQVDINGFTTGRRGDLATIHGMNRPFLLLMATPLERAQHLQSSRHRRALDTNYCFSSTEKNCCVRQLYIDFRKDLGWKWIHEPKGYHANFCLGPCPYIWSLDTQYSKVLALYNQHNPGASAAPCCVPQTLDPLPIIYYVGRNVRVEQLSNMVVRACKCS

[8] = target: human-chicken LAP-TGFβ1 chimera #1 on HT1080 cells (human/chicken chimera); test: flow cytometry, transduced HT1080 cells
Sequence of human-chicken LAP-TGFβ1 chimera #1 on HT1080 cells (human/chicken chimera) (chain, as listed by the source mutant limits assumed): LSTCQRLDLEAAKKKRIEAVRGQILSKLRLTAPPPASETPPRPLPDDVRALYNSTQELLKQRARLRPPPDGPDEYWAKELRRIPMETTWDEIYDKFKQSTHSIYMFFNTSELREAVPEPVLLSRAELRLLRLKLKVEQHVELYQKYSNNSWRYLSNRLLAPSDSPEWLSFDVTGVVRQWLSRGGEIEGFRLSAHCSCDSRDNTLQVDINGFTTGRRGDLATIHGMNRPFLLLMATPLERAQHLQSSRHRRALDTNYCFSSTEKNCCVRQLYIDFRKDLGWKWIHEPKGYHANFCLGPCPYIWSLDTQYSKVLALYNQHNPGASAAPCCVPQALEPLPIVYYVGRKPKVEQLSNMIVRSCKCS

[9] = target: human LAP-TGFβ1 overexpressed on cells (human) (UniProt P01137); test: flow cytometry, transduced HT1080 cells
Sequence of human LAP-TGFβ1 overexpressed on cells (human) (P01137 30-390): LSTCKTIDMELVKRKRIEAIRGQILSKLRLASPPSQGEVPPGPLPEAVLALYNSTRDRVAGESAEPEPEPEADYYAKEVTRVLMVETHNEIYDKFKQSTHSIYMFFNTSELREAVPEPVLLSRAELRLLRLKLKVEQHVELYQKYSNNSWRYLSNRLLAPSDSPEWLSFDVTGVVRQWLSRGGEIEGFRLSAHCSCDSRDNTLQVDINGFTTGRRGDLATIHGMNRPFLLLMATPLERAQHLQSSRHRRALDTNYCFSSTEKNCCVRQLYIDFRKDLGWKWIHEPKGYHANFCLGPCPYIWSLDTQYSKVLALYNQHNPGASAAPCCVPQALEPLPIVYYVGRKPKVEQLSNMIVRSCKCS

[10] = target: human-chicken LAP-TGFβ1 chimera #1.2 on HT1080 cells (human/chicken chimera) (UniProt P01137); test: flow cytometry, transduced HT1080 cells
Sequence of human-chicken LAP-TGFβ1 chimera #1.2 on HT1080 cells (human/chicken chimera) (P01137 other isoform, or with tags, fused parts or gaps mutant): as the sequence (P01137 30-390) above, with A31T, S32A, S35P, Q36A, G37S, V39T, G42R, E46D, A47D, L49R counted along it

[11] = target: human-chicken LAP-TGFβ1 chimera #2 on HT1080 cells (human/chicken chimera); test: flow cytometry, transduced HT1080 cells
Sequence of human-chicken LAP-TGFβ1 chimera #2 on HT1080 cells (human/chicken chimera) (chain, as listed by the source mutant limits assumed): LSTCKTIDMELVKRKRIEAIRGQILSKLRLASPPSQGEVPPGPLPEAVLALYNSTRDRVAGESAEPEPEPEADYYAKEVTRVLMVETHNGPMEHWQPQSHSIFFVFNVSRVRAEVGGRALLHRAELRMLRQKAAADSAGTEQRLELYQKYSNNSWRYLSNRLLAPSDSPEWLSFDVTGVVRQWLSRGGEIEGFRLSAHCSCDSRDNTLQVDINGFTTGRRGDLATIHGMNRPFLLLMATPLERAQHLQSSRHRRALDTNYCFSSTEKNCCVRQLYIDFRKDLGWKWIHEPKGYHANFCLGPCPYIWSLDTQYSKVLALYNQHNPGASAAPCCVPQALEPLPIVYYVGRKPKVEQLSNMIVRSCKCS

[12] = target: human-chicken LAP-TGFβ1 chimera #2.2 on HT1080 cells (human/chicken chimera) (UniProt P01137); test: flow cytometry, transduced HT1080 cells
Sequence of human-chicken LAP-TGFβ1 chimera #2.2 on HT1080 cells (human/chicken chimera) (P01137 other isoform, or with tags, fused parts or gaps mutant): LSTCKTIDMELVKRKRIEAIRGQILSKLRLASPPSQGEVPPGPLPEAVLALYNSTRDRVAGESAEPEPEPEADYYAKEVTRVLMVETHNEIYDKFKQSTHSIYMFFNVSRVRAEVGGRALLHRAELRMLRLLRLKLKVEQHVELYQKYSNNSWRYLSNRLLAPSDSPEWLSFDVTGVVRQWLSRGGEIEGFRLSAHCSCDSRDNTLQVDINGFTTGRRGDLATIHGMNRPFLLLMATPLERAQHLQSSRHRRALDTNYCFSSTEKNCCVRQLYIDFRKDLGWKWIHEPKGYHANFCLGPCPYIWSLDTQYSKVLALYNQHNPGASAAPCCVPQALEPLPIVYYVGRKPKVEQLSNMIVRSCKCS

[13] = target: human-chicken LAP-TGFβ1 chimera #6 on HT1080 cells (human/chicken chimera) (UniProt P01137); test: flow cytometry, transduced HT1080 cells
Sequence of human-chicken LAP-TGFβ1 chimera #6 on HT1080 cells (human/chicken chimera) (P01137 other isoform, or with tags, fused parts or gaps mutant): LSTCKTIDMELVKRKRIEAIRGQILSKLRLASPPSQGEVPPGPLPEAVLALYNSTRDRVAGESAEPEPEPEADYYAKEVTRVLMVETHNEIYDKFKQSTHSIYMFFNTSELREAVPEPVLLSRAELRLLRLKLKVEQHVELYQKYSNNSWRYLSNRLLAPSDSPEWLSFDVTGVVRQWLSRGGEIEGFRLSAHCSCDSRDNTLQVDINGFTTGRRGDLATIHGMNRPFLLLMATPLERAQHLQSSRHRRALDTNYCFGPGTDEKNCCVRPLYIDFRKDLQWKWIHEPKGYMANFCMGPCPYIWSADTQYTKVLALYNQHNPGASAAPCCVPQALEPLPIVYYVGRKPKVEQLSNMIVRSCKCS

[14] = target: human-chicken LAP-TGFβ1 chimera #3 on HT1080 cells (human/chicken chimera) (UniProt P01137); test: flow cytometry, transduced HT1080 cells
Sequence of human-chicken LAP-TGFβ1 chimera #3 on HT1080 cells (human/chicken chimera) (P01137 other isoform, or with tags, fused parts or gaps mutant): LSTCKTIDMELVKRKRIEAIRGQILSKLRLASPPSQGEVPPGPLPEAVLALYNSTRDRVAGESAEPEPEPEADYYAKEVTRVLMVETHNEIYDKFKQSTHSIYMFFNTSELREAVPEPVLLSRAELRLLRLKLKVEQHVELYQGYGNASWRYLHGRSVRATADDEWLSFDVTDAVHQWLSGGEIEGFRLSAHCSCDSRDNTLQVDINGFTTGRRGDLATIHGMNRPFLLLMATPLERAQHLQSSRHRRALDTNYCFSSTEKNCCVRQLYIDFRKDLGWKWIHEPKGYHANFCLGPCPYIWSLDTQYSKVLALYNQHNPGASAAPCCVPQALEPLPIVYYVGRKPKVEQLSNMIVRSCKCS

Sequence of LAP-TGFβ1 on U937 cells (Homo sapiens) (P01137 30-390 limits assumed): as the sequence (P01137 30-390) above
Sequence of human-chicken LAP-TGFβ1 chimera #5 on HT1080 cells (human/chicken chimera) (chain, as listed by the source mutant limits assumed): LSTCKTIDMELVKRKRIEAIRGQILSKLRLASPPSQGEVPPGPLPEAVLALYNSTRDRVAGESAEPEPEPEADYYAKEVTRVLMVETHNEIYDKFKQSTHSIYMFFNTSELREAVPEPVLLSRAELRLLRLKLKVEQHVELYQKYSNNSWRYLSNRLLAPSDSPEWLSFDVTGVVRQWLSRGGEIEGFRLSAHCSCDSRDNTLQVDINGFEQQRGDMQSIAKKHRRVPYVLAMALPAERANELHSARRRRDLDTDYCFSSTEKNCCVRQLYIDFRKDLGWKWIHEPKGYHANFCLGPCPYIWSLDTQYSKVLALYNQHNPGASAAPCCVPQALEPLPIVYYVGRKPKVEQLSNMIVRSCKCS

% of cells in Q1 (antibody axis positive, GARP negative) [1]	% of cells in Q2 (antibody axis positive, GARP positive) [1]	% GFP+/APC+ cells [2]	% GFP+/APC+ cells [3]	% GFP+/APC+ cells [4]	% GFP+/APC+ cells [5]	% GFP+/APC+ cells [6]	% GFP+/APC+ cells [7]	% GFP+/APC+ cells [8]	% GFP+/APC+ cells [9]	% GFP+/APC+ cells [10]	% GFP+/APC+ cells [11]	% GFP+/APC+ cells [12]	% GFP+/APC+ cells [13]	% GFP+/APC+ cells [14]	Substance
16.2%	0.37%														Isotype Control (antibody)
		11.9%	79.1%	56.2%	0.5%	65.2%	0.6%	7.5%	68.9%	78.3%	1.5%	47.2%	76.7%	46.3%	rabbit monoclonal antibody raised against a peptide from the mature cytokine domain (Abcam ab179695)
